Source: article doi:10.1101/2022.06.02.494603
Numbering of substitutions follows the chain as printed. Numbers in names are those of the source.

B1: TBK1 p.E696K, untagged, Q9UHD2 1-729 (natural protein)
chain: MQSTSNHLWLLSDILGQGATANVFRGRHKKTGDLFAIKVFNNISFLRPVDVQMREFEVLKKLNHKNIVKLFAIEEETTTRHKVLIMEFCPCGSLYTVLEEPSNAYGLPESEFLIVLRDVVGGMNHLRENGIVHRDIKPGNIMRVIGEDGQSVYKLTDFGAARELEDDEQFVSLYGTEEYLHPDMYERAVLRKDHQKKYGATVDLWSIGVTFYHAATGSLPFRPFEGPRRNKEVMYKIITGKPSGAISGVQKAENGPIDWSGDMPVSCSLSRGLQVLLTPVLANILEADQEKCWGFDQFFAETSDILHRMVIHVFSLQQMTAHKIYIHSYNTATIFHELVYKQTKIISSNQELIYEGRRLVLEPGRLAQHFPKTTEENPIFVVSREPLNTIGLIYEKISLPKVHPRYDLDGDASMAKAITGVVCYACRIASTLLLYQELMRKGIRWLIELIKDDYNETVHKKTEVVITLDFCIRNIEKTVKVYEKLMKINLEAAELGEISDIHTKLLRLSSSQGTIETSLQDIDSRLSPGGSLADAWAHQEGTHPKDRNVEKLQVLLNCMTEIYYQFKKDKAERRLAYNEEQIHKFDKQKLYYHATKAMTHFTDECVKKYEAFLNKSEEWIRKMLHLRKQLLSLTNQCFDIEEEVSKYQEYTNELQETLPQKMFTASSGIKHTMTPIYPSSNTLVEMTLGMKKLKEKMEGVVKELAENNHILERFGSLTMDGGLRNVDCL
B2: TBK1 G217R, untagged, Q9UHD2 1-729 (natural protein)
chain: B1 chain with G217R, K696E

Target: optineurin, C-terminal myc-FLAG-tagged, Q96CV9
Sequence (Q96CV9 whole entry): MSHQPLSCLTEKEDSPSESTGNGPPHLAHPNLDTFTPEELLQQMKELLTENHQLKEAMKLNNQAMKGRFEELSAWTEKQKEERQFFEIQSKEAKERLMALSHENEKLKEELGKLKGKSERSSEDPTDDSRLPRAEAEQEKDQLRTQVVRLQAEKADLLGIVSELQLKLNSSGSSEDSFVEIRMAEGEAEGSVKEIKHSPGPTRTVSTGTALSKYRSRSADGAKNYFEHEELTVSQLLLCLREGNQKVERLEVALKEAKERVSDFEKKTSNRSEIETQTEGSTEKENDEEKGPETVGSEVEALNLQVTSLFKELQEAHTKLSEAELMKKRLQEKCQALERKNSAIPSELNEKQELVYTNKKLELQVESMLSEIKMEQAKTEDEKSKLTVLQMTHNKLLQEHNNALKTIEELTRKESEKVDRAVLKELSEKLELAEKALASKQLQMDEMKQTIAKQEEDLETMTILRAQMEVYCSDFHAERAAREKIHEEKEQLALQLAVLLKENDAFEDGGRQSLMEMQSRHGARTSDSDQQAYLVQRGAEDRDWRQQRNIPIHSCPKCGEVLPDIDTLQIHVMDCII
Assay: co-IP
Settings: remark: other sources report otherwise

| Binder | TBK1 bound to OPTN relative to wild type (relative to TBK1 WT) |
| --- | --- |
| B1 | 0.02 |
| B2 | 0.27 |
